{"source": "paper PMC12219675", "about": "(Nature Communications, 2025)", "proteins": {"B1": {"name": "G175S PMEL CAF domain (residues 148-223) (domain or fragment)", "chain": "SFVYVWKTWGQYWQVLGGPVSGLSIGTSRAMLGTHTMEVTVYHRRGSRSYVPLAHSSSAFTITDQVPFSVSVSQLR"}}, "biological_target": "the molecule itself", "assay": "thioflavin T fluorescence", "data": [{"protein": "B1", "values": [{"measurement": "polymerisation (ThT fluorescence) relative to the wild type", "value": "~4", "unit": "fold"}]}]}
